According to patent publication US20120207760A1 (THERACLONE SCIENCES, published 2012):

Target: Hemagglutinin of influenza A/Japan/305/57 (H2N2), on inactivated whole virions (Influenza A virus A/Japan/305/1957 …, UniProt P03451 16-562)
Test: ELISA, B cell culture supernatant on inactivated whole virions

B1: TCN-521 (3280_D18) (antibody, V domains shown)
VH: EVQLVQSGGGLVQPGGSLRLACVVSGFTVTSNYITWVRQAPGKGLEWVSVIYSHGRAYYSASVNGRFTISRHTSKNTVYLEMNSLRPEDTAVYYCAGGGLVGGYDEYFFDYWGQGTLATVSS
VL: ETVLTQSPGTLSLTPGERATLSCRVGQSVSGSHLAWYQQKPGQAPRLLIYGASSRATGIPDRFGGSVSGTDFTLTISRLEPEDSAVYYCQQYGDSRYTFGQGTKLEIK
  OD450: 3.1 OD450

B2: TCN-523 (5248_A17) (antibody, V domains shown)
VH: QVQLVQSGAEVKKPGSSVKVSCKASGGSFSNYAFSWVRQAPGQGLEWMGGTIPLLGTTNYAQKFQGRVTISADQFTSTAYMELGSLRSEDTAVYYCTRRKMTTAFDSWGQGTLVTVSS
VL: QPVLTQPPSASASLGASVTLTCTLSSAYSNYKVDWYQQRPGKGPRFVMRVGTGGIVGSKGDGIPDRFSVLGSGLNRYLTIKNIQEEDESDYHCGADHGSGSNFVSPYVFGGGTKLTVL
  OD450: 1.62 OD450

B3: TCN-563 (5237_B21) (antibody, V domains shown)
VH: QVQLAQSGAEVKRPGSSVKVSCTASGGIFRKNAISWVRQAPGQGLEWMGGIIAVFNTANYAQKFQGRVKITADESGNTAYMELSSLRSDDTAVYYCASHPKYFYGSGSYPDFWGQGTLVTVSS
VL: QSALTQPRSVSGSPGQSVTISCTGSSSDVGASNSVSWYQQHPGKAPKLVIYDVTERPSGVPHRFSGSKSGNTASLTVSGLQPEDEADYFCCAYGGKYLVVFGGGTKVTVL
  OD450: 1.23 OD450

B4: TCN-526 (5084_C17) (antibody, V domains shown)
VH: EVLMVESGGGLVQPGGSVRLSCVASGFSFSSHWMTWVRQAPGKGLEWVANIEDDGGDKYYVDSVKGRFIISRDNAKNSVYLQMNSLRAEDTAVYFCARGSGSSDRSDYDPHYYYYLDVWGKGATVTVSS
VL: DIQLTQSPSSLSASVGDRVTITCRASQSISRYLNWYQQKPGKAPKLLLFAASTLLDGVPSRFSGSGSGTDFTLTISSLQPEDFATYYCQRNHSPSWTFGQGTRVEIK
  OD450: 0.07 OD450

B5: TCN-527 (5086_C06) (antibody, V domains shown)
VH: QVQLQESGPGLVKPSETLSLNCAVSGGSISNYYWSWIRQPPGKGLEWIGYISYNGRPKYNPSLTSRVTISVDTSKDQFSLELRSVTAADTALYYCARETRFGELLSPYDAFEIWGQGTMVTVSS
VL: DIQMTQSPSSLSASVGDRVTMTCRASQNIRSYLNWYQQRPGTAPKLLIYAASTLHSGVPSRFSGGGSGTDFTLTINNLQPEDFASYYCQQSYDNPQTFGQGTKVEIK
  OD450: 1.48 OD450

B6: TCN-528 (5087_P17) (antibody, V domains shown)
VH: QVQLVQSGSEVKKPGASVKVSCKASGYTFTNYDINWIRQAPGQGLEWMGWINPNSGTTGSAQRFQGRVTITVDTSITTVYMELSSLRSDDTAIYYCARGRELLRLQHFLTDSQSERRDCFDPWGQGTLVTVSS
VL: DIQMTQSPSSLSASVGDRVTITCRANQDIGIYLNWYQQNPGKVPKLLLHGASSLQGGVPSRFSASGSGTDFTLTIHSLQPEDLATYYCQQSRRLPYTFGQGTRVELK
  OD450: 2.82 OD450

B7: TCN-530 (5248_H10a) (antibody, V domains shown)
VH: QVQLVQSGAEVRKPGSSVKVSCKASGGPFMSYAIGWVRQAPGQGLEWMGGINPVFGRPHYAQKFQGRVTIATDDSTKTSYMELSSLTSEDTGMYYCASRYSRSSPGTFESWGQGTLVTVSS
VL: EIVMTQFPATLSVSPGERVTLSCRASQSVSNNLAWYQQKPGQPPRLLIYDASTRATGVPAKFSGTGSGTEFTLSISSLQSEDFAVYYCQQYHNWPPSYSFGLGTKLEIK
  OD450: 1.73 OD450

B8: TCN-531 (5091_H13) (antibody, V domains shown)
VH: EVQLVESGGDLVQPGRSLKLSCTGSGFTFGDYGVTWVRQAPGKGLEWVGFIRTRPWGGTADTAASVKGRFTISRDDSKSLAYLQMNSLKTEDTAVYYCCRDAPPNVEVASMTNWYFDLWGRGTLVTVSS
VL: DIQLTQSPSSLSASVGDRVTITCRASQGILNCLAWYQQKPGKVPNLLMYAASTLQSGVPSRFSGSGFGTDFTLTISSLQPEDVATYYCQTYGGVSTFGGGTKVEIR
  OD450: 0.67 OD450

B9: TCN-532 (5262_H18) (antibody, V domains shown)
VH: QVQLQESGPGLVKPSETLSLTCTVSGGSVSSETYYWSWIRQPPGKGLEWIGYIYYIGNTDYRPSLKSRVTISLDTSKNQFSLKLSSVTAADTAVYYCARGAYYDSSGYPAFYIWGQGTMVTVSS
VL: QSVLTQPPSVSGAPGQRVTISCTGSSSNIGSDYDVHWYKQLPGTAPKLLIFGNSNRPSGVPDRFSGSKSGTSASLAITGLQAEDEADYYCQSYDSSLSGFHVFGSGTKVTVL
  OD450: 0.07 OD450

B10: TCN-533 (5256_A17) (antibody, V domains shown)
VH: QVQLVQSGADVKKPGSSVTVSCKASGGSFSNYGINWVRQAPGQGLEWMGGIIPLINAPNYAPKFQGRVTITADMFSNIVSLQLTSLRTDDTAVYYCARRKMTTAIDYWGQGTLVTVSS
VL: QPVLSQPPSASASLGASVTLTCTLSSGFDNYQVAWYQQRPGKGPRFVMRVGNGGNVASKGDGIPDRFSVSGSGLNRYLTIKNIQEDDESDYYCGADHGSGNNFVSPYVFGGGTKLTVL
  OD450: 1.1 OD450

B11: TCN-534 (5249_B02) (antibody, V domains shown)
VH: QVQLVQSGAEVKKPGSSVKVSCRESGGTFNGYTITWVRQAPGQGLEWMGGIIPMMGTVNYAQKLQGRVTITTDYFTKTAYMDLNNLRSEDTAMYYCVKIRYTGQQLLWGQGTLVTVSS
VL: DIQMTQSPSTLSASIGDRVTITCRASQSIASWLAWYQQKPGKAPKLLIYEAVNLESGVPSRFSGSGSGTDFTLTISSLQPDDFATYFCQHYGTISQTFGGGTKVEIK
  OD450: 2.56 OD450

B12: TCN-535 (5246_P19) (antibody, V domains shown)
VH: QVQLVQSGSEVKKPGTSVKVSCTASGSVFTNYGISWVRQAPGQGLEWMGGIIPLFGAAKYAQKFQGRVTITADESTKTVYMELSRLTSKDTAIYFCAKAPRVYEYYFDQWGQGTPVTVSS
VL: EIVLTQSPGTLSLSPGERATLSCRASQSVSSSQLAWYQQKPGQAPRLIIYGASTRATGIPDRFSGSGSGTDFTLTIGRLEPEDFAVFFCQQYSTSPPTFGQGTKVDFK
  OD450: 1.46 OD450

B13: TCN-536 (5095_N01) (antibody, V domains shown)
VH: QVQLQQWGAGLLKPSETLSLTCAVYGGSFSVSGYYWSWIRQPPGRGLEWIGEISHGGSTNYNPSLKSRVTISVDTTKNQFSLRLSSVTAADTAVYYCARGTDPDTEVYCRVGNCAAFDYWGQGSLVTVSS
VL: EIILAQSPGTLSLSPGERATLSCRASQFVSTRSLAWYQQRPGQAPRLLIYGASSRATGIPDRFSGSGSGTDFTLTISRLEPEDFAVYYCQHYGYSPRYAFGQGSKVEIK
  OD450: 0.08 OD450

B14: TCN-539 (5056_A08) (antibody, V domains shown)
VH: QVQLVESGGGVVQPGRSLRLSCAASEITFITYAMHWVRQAPGKGLEWVALISDDGSNKFYADSVKGRFTISRDNSKNTLYLQMNSLRAEDTAAYYCAREGVYFDSGTYRGYFDYWGQETLVTVSS
VL: EIVLTQSPATLSLSPGERATLSCRASQSVSSYLAWYQQKPGQAPRLLIYDASNRATGIPARFSGSGSGTDFTLTISSLEPEDFAVYYCQQRSHWPPITFGQGTRLEIK
  OD450: 0.06 OD450

B15: TCN-540 (5060_F05) (antibody, V domains shown)
VH: QVQLVQSGGGVVQPGRSLRLSCAASGFTFSSYAMHWVRQAPGKGLEWVAIISYDGNDQYYTDSVKGRFTISRDSSKVYLQMHRLRPEDTAVYYCAKEFETSGYFHGSFDYWGQGILVTVSS
VL: QSALTQPASVSGSPGQSITISCTGTSSDVGGYNYVSWYQQHPGKAPKLLIYEVTNWPSGVSNRFSGSKSGNTASLTISGLQAEDEADYYCSSYAGSSTWVFGGGTRVTVL
  OD450: 3.62 OD450

B16: TCN-542 (5079_A16) (antibody, V domains shown)
VH: QVQLQESGPGLVKPSQTLSLTCTVSGGSISSGNYYWNWVRQHPGKGLEWIGYIYYRGSTFYNPSLKSRVTISIDTSKNQFSLRLSSVTAADTAVYYCAKDTRSSLDNYQYGMDVWGQGTTVTVSS
VL: QTVVTQEPSLTVSPGGTVTLTCASSTGAVTSSYFPNWFQQKPGQAPRPLIYSTTIRHSWTPARFSGSLLGGKAALTLSGVQPEDEADYYCLLYSGGDPVAFGGGTKLTVL
  OD450: 0.08 OD450

B17: TCN-543 (5081_G23) (antibody, V domains shown)
VH: QVHLVQSGAEVRKPGDSVKVSCKTSGYTFSTYPVAWVRQVPGQGLEWMGWISTYNGNTNFAQNFQGRVTLTTDTTTNTAYMEVRSLKFDDTAVYYCARVEGSYRDFWNNQNRFDPWGQGTLVTVSS
VL: SYVLTQPPSVSVAPGQTARISCGGSNIGGKSVHWYQQKPGQAPVLVVYDDSGRPSGIPERFSGSNSGDTATLTISRVEAGDEADYFCQVWDNFGGVFGTGTKVTVL
  OD450: 3.62 OD450

B18: TCN-544 (5082_A19) (antibody, V domains shown)
VH: QVQLQESGPGLVKPSETLSLTCTVSRGSIGHYFWSWIRQPPGKGLEWIGYISYSGSTKYNPSLRSRVTISVDTSKNQFSLNLNSVTATDTALYYCAREDYDILTGAGPGMEVWGQGTTVTVSS
VL: QSMLTQPPSASGTPGQRVTISCSGSSSNIGSNTVNWFKHLPGTAPKLLIYRNDLRPSGVPDRFSGSKSGTSASLAISGLQSEDEADYYCATWDDSLNGFYVFGTGTKVTVL
  OD450: 0.07 OD450

B19: TCN-545 (5082_I15) (antibody, V domains shown)
VH: QVQLQQWGAGLLKPSETLSLSCAVFGGSFSDYYWTWIRQPPGKGLEWIGEIKHSGRTNYNPSLESRVTISVDTSKNQFSLKLSSVTAADTAIYYCARGTDPDTEGYCRSGSCSAFDFWGQGTLVTVSS
VL: EIVLTQSPGTLSLSPGERATLSCRASHFVNYRSLAWYQQTPGQVPRLLIYGASTRATGIPDRFSGSGSGTDFTLTISRLEPEDFAVYFCQQYGGSPRYTFGQGTRLEIK
  OD450: 0.06 OD450

B20: TCN-546 (5089_L08) (antibody, V domains shown)
VH: QVQLQQWGAGLLKPSETLSLTCGVYGGSLSDYYWSWIRQPPGKGLEWIGEINHSGGTNYNPSLKRRVTISVDTSKKQFSLKMNSVTAADTAVYYCARGTDPDTEVYCRAGNCAAFDFWGQGTLVTVSS
VL: EIVLTQSPGTLSLSPGERATLSCRASHFVIGRAVAWYQQKPGQAPRLLIYGASSRATGIPDRFSGSGSGTDFTLTISRLETEDFAVFYCQHYGSSPRYAFGQGTKLEIK
  OD450: 0.06 OD450

B21: TCN-547 (5092_F11) (antibody, V domains shown)
VH: QVQLQESGPGLVKPSQTLSLTCTVSGDSISSVDHYWSWIRQHPVKGLEWIGFMYYSASTYYNPSLKSRVTISTDTSKNQFSLRLSSVTAADTAVYYCARGTCAGDCSLHYYYYGLDVWGQGRTVTVSS
VL: DIQMTQSPSSLSASVGDRVTITCRASQSISSYLNWYQHKPGKAPKVLMYAVSILQSGVPSRFSGSGSGADFTLTISSLQPEDFATYYCQQSYSSPLTFGGGTKVEIK
  OD450: 0.07 OD450

B22: TCN-548 (5092_P01) (antibody, V domains shown)
VH: QVQLQESGPGLVKPSETLSLTCTVSSGPMSDYYWSWIRQPPGKGLEWIGHVSVSHGGRTKSNPSVMSRVTISVETSKNQFSLKLTSVTAADTAVYYCARLNYYDRSGYHSPDGPSNNWFDPWGQGTLVTVSS
VL: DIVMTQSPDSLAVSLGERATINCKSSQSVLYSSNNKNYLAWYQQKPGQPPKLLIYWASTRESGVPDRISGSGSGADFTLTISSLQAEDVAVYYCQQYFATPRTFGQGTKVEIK
  OD450: 0.09 OD450
